T1: human TROP2-his protein (human, UniProt P09758 27-274)
T1 construct: also called biotin labeled human TROP2-his protein
T1 sequence: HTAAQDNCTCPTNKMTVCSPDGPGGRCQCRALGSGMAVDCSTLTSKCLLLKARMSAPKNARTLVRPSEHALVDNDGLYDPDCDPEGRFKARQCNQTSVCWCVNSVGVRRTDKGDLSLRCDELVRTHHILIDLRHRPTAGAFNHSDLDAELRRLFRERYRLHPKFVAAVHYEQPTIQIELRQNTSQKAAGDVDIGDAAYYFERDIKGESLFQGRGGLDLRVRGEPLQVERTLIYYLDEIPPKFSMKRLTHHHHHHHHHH

T2: cynomolgus TROP2-his protein (cynomolgus, UniProt P09758 27-272 (human entry), limits assumed)
T2 construct: also called Cyno TROP2-his; Cynomolgus monkey TROP2-his protein
T2 chain: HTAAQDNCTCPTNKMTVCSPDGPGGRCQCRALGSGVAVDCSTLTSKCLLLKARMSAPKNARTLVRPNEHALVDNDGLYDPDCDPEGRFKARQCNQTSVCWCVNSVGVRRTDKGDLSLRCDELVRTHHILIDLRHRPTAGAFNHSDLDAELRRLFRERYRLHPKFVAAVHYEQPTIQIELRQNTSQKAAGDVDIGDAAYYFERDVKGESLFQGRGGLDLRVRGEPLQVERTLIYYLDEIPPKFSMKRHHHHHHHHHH

B1: single domain antibody 01-9F (VHH)
VHH: QVQLVESGGGSVQAGGSLRLSCVVSGLPYERYCVAWFRQGPGKEREGVARILSDGTTSYSDSVKGRFTISKDNAKNTLYLQMNSLKSEDTATYYCAAEAFRPFTPSDGDCTTVLGIDYWGKGTPVTVSS
B2: sacituzumab (benchmark, an analog of sacituzumab, in house made) (antibody, human IgG1, kappa, V domains shown)
VH: SVQLQQSGSELKKPGASVKVSCKASGYTFTNYGMNWVKQAPGQGLKWMGWINTYTGEPTYTDDFKGRFAFSLDTSVSTAYLQISSLKADDTAVYFCARGGFGSSYWYFDVWGQGSLVTVSS
VL: DIQLTQSPSSLSASVGDRVSITCKASQDVSIAVAWYQQKPGKAPKLLIYSASYRYTGVPDRFSGSGSGTDFTLTISSLQPEDFAVYYCQQHYITPLTFGAGTKVEIKR
notes: also called BM; BM1

Key:
human TROP2-his protein [1] = biological target: T1, human TROP2-his protein; test: capture ELISA: antibody captured on anti-human IgG Fc coated plate, biotin labeled human TROP2-his detected with streptavidin-HRP; unit taken from the x axis (nM)
Method: For the capture ELISA, 96-well plates were coated with 100 μl 2 μg/ml AffiniPure F(ab′)₂ Fragment GoatAnti-Human IgG, Fey fragment specific (Jackson Immuno Research, Cat #109-006-008) in PBS overnight at 4° C. Plates were washed once with wash buffer (PBS+0.05% v/v Tween-20, PBST) and then blocked with 200 μl/well blocking buffer (5% w/v non-fatty milk in PBST) for 2 hours at 37° C. Plates were washed 4 times and respectively incubated with 100 μl serially diluted anti-TROP2 antibodies of the disclosure, the benchmark or negative control hIgG (human immunoglobulin (pH4) for intravenous injection, Hualan Biological Engineering Inc.) (5-fold dilution in 2.5% w/v non-fatty milk in PBST, starting at 66.7 nM) for 40 minutes at 37° C., and then washed 4 times again. […] The reaction was stopped in 3-10 minutes at room temperature with 50 μl/well 1M H₂SO₄, and the absorbance of each well was read on a microplate reader using dual wavelength mode with 450 nm for TMB and 630 nm as the reference wavelength. […] Data was analyzed using Graphpad Prism software and EC₅₀ values were reported.

[2] = biological target: T2, cynomolgus TROP2-his protein; test: SPR Biacore T200; antibody captured on anti-human IgG CM5 chip, TROP2-his as analyte in 2-fold dilutions from 160 nM; 1:1 Langmuir fit
Source text: (§1) The purified anti-TROP2 mouse monoclonal antibodies (mAbs) were characterized for binding affinity and binding kinetics by Biacore T200 system (GE healthcare, Pittsburgh, PA, USA). Briefly, goat anti-human IgG (GE healthcare, Cat #BR100839, Human Antibody Capture Kit) was covalently linked to a CM5 chip (carboxy methyl dextran coated chip from GE healthcare #BR100530) via primary amines, using a standard amine coupling kit (GE healthcare, Pittsburgh, PA, USA) provided by Biacore. Un-reacted moieties on the chip (biosensor) surface were blocked with ethanolamine. The anti-TROP2 antibodies of the disclosure and the benchmark at the concentration of 2 μg/ml were respectively flowed onto the chip at a flow rate of 10 μL/min. Then, serially diluted human TROP2-his protein (prepared in-house with SEQ ID NO: 16), or cynomolgus TROP2-his protein (prepared in-house with SEQ ID NO: 19), 2-fold dilution in HBS-EP⁺ buffer (provided by Biacore) starting at 160 nM, were flowed onto the chip at a flow rate of 30 μL/min. The antigen-antibody association kinetics was followed for 2 minutes and the dissociation kinetics was followed for 10 minutes. The association and dissociation curves were fit to a 1:1 Langmuir binding model using BIAcore evaluation software.

human TROP2-his protein [3] = biological target: T1, human TROP2-his protein; test: as above
Source text: as §1

human TROP2-his protein [4] = biological target: T1, human TROP2-his protein; test: indirect ELISA on human TROP2; unit taken from the x axis (nM)
[5] = biological target: T2, cynomolgus TROP2-his protein; test: SPR Biacore; antibody captured on anti-human IgG chip, TROP2-his as analyte
human TROP2-his protein [6] = biological target: T1, human TROP2-his protein; test: as above

| Binder | EC50 (human TROP2-his protein [1]) | Kd [2] | koff [2] | kon [2] | Kd (human TROP2-his protein [3]) | koff (human TROP2-his protein [3]) | kon (human TROP2-his protein [3]) | EC50 (human TROP2-his protein [4]) | Kd [5] | koff [5] | kon [5] | Kd (human TROP2-his protein [6]) | koff (human TROP2-his protein [6]) | kon (human TROP2-his protein [6]) |
| --- | --- | --- | --- | --- | --- | --- | --- | --- | --- | --- | --- | --- | --- | --- |
| B1 | 0.164 nM | 0.558 nM | 0.000161 s⁻¹ | 287000 M⁻¹ s⁻¹ | 0.0262 nM | 8.11e-06 s⁻¹ | 309000 M⁻¹ s⁻¹ | 0.104 nM | 0.285 nM | 0.00015 s⁻¹ | 525000 M⁻¹ s⁻¹ | 0.291 nM | 0.00017 s⁻¹ | 586000 M⁻¹ s⁻¹ |
| B2 | 0.269 nM | 0.874 nM | 0.000224 s⁻¹ | 257000 M⁻¹ s⁻¹ | 0.409 nM | 0.000116 s⁻¹ | 284000 M⁻¹ s⁻¹ | 0.162 nM | 0.436 nM | 0.000228 s⁻¹ | 522000 M⁻¹ s⁻¹ | 0.554 nM | 0.000286 s⁻¹ | 516000 M⁻¹ s⁻¹ |
